# Experimental data from article PMC6754406, “Ran pathway-independent regulation of mitotic Golgi disassembly by Importin-α” (Nature Communications, 2019).
# Tests used:
# [1] = molecular target: GM130-NLS WT peptide (human); assay: ITC; MicroCal iTC200, 25 °C, 20 mM HEPES pH 7.4, 1 mM DTT, with either 50 or 200 mM NaCl (which one is shown only in the figures); one-sites binding model
# [2] = molecular target: GM130-NLS phospho-S25 (synthetic peptide with a phosphate moiety on Ser-25 of GM130, a.a. 13-40) (human); assay: as above
# [3] = molecular target: GST-GM130-S25D (a.a. 1-85) (human); assay: pull-down; GST-GM130 (or GST-IBB) and the recombinant partner at 1:1 molar ratio on glutathione sepharose beads, wash with 150 mM NaCl, elution with 50 mM reduced glutathione, SDS-PAGE, Coomassie blue
# [4] = molecular target: GST-GM130-S25D (a.a. 1-85) (human); assay: pull-down; competition: p115-CTD with GST-GM130-WT or GST-GM130-S25D and increasing concentrations of Importin-α FL (up to 40 μM); GST beads, SDS-PAGE, Coomassie blue, band intensities normalised by GST-GM130
# [5] = molecular target: GST-GM130-WT (a.a. 1-85) (human); assay: as above
# [6] = molecular target: GST-GM130-S25D (a.a. 1-85) (human); assay: pull-down; 5 µM GST-GM130 with HEK293T cell lysate (RIPA buffer) and glutathione sepharose beads, washes with 150 mM NaCl, Western blot for Importin-α and Importin-β
# Importin-β, recombinant, non-tagged, sequence (Q14974 whole entry): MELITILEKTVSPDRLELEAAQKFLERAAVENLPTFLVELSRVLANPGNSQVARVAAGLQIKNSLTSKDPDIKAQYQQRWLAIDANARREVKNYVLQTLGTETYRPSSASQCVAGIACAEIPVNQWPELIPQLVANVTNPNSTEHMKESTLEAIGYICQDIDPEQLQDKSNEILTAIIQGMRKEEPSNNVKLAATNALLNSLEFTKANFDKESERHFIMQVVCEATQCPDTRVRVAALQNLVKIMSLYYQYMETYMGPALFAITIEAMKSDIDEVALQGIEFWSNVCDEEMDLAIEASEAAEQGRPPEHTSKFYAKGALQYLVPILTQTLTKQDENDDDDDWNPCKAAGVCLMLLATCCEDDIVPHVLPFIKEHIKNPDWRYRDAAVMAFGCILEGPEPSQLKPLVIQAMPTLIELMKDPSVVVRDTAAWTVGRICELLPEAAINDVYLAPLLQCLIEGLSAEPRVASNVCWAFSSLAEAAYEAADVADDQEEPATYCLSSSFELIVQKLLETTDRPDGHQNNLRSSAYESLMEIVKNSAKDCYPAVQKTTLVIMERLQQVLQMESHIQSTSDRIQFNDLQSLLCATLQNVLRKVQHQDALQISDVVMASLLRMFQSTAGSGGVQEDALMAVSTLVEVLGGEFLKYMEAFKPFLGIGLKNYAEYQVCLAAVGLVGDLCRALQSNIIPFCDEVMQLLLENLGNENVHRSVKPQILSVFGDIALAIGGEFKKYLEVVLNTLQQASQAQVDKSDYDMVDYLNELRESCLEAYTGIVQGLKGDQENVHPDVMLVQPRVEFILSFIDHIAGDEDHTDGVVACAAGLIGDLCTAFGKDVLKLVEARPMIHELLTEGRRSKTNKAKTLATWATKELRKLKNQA
substance,measurement,setting,value
"Importin-β, recombinant, non-tagged (from UniProt Q14974 1-876) (natural protein)",Kd,[1],1200 nM
same,fold lower binding constant than the wild-type GM130 peptide,[2],> 1000 fold
"Importin-α(ΔIBB) (Importin-α lacking the IBB domain, a.a. 70-524) (from UniProt P52293 70-524) (domain or fragment)",Kd,[2],126 nM
"Importin-α FL (full-length Importin-α), recombinant (from UniProt P52292 1-529) (natural protein)",percent of Importin-α FL pulled down relative to Importin-α(ΔIBB),[3],50%
same,fold lower dissociation constant than GM130-NLS WT,[2],3.3 fold
same,fold Importin-α FL pulldown against wild-type GM130 (40 μM Importin-α FL),[4],2 fold
same,percent p115-CTD remaining on GM130 with 40 μM Importin-α FL,[4],20%
same,percent p115-CTD remaining on GM130 with 40 μM Importin-α FL,[5],38%
"Importin-α, endogenous in HEK293T cells (from UniProt P52292 1-529) (natural protein)",fold Importin-α pulldown against wild-type GST-GM130,[6],1.3 fold
